Data from the Immune Epitope Database (IEDB).

Legend:
HLA-B*15:09 = test: IEDB peptide-MHC binding, purified MHC/competitive/fluorescence; filed as Kd, often an IC50 or EC50 that approximates it; ≥ and ≤ were set here for values at or beyond the usual limits of such assays; settings: source organism: Human immunodeficiency virus type 1 (MAL ISOLATE)
HLA-B*15:17 [1] = test: as above; settings: source organism: Human immunodeficiency virus type 1 (MAL ISOLATE)
HLA-B*38:01 = test: as above; settings: source organism: Human immunodeficiency virus type 1 (MAL ISOLATE)
HLA-A*01:01 [2] = test: as above
HLA-A*30:01 = test: as above
HLA-B*15:01 [3] = test: as above; settings: source organism: Human immunodeficiency virus type 1 (MAL ISOLATE)
HLA-B*08:01 [4] = test: as above
HLA-A*31:01 = test: IEDB peptide-MHC binding, purified MHC/direct/fluorescence; filed as Kd, often an IC50 or EC50 that approximates it; ≥ and ≤ were set here for values at or beyond the usual limits of such assays; settings: source organism: Escherichia coli
HLA-B*40:01 = test: as above
HLA-B*27:05 [5] = test: as above; settings: source organism: Escherichia coli
HLA-B*35:01 = test: as above; settings: source organism: Escherichia coli
HLA-B*15:02 = test: as above; settings: source organism: Salmonella enterica subsp. enterica serovar Dublin
HLA-A*01:01 [6] = test: as above; settings: source organism: Escherichia coli
HLA-A*11:01 [7] = test: as above; settings: source organism: Escherichia coli
HLA-A*26:01 = test: as above
HLA-A*03:01 = test: as above
HLA-A*02:01 [8] = test: as above; settings: source organism: Escherichia coli
HLA-B*07:02 [9] = test: as above; settings: source organism: Escherichia coli
HLA-B*15:01 [10] = test: as above; settings: source organism: Escherichia coli
HLA-A*69:01 = test: as above; settings: source organism: Escherichia coli
HLA-B*08:01 [11] = test: as above; settings: source organism: Escherichia coli
HLA-B*58:01 [12] = test: IEDB peptide-MHC binding, purified MHC/competitive/radioactivity; filed as Kd, often an IC50 or EC50 that approximates it; ≥ and ≤ were set here for values at or beyond the usual limits of such assays; settings: source organism: Homo sapiens
HLA-A*29:02 [13] = test: as above; settings: source organism: Homo sapiens
HLA-A*02:01 [14] = test: as above; settings: source organism: Homo sapiens
HLA-A*02:07 = test: as above; settings: source organism: Homo sapiens
HLA-B*57:01 [15] = test: as above; settings: source organism: Homo sapiens
HLA-B*53:01 = test: IEDB peptide-MHC binding, purified MHC/competitive/fluorescence; filed as Kd, often an IC50 or EC50 that approximates it; ≥ and ≤ were set here for values at or beyond the usual limits of such assays; settings: source organism: Vibrio vulnificus CMCP6
HLA-B*27:05 [16] = test: as above; settings: source organism: Vibrio vulnificus CMCP6
HLA-B*44:02 = test: as above; settings: source organism: Vibrio vulnificus CMCP6
HLA-B*39:01 = test: as above; settings: source organism: Vibrio vulnificus CMCP6
HLA-B*58:01 [17] = test: as above; settings: source organism: Vibrio vulnificus CMCP6
HLA-A*23:01 = test: as above; settings: source organism: Vibrio vulnificus CMCP6
HLA-B*14:02 = test: as above; settings: source organism: Vibrio vulnificus CMCP6
HLA-A*29:02 [18] = test: as above; settings: source organism: Vibrio vulnificus CMCP6
HLA-A*11:01 [19] = test: as above; settings: source organism: Vibrio vulnificus CMCP6
HLA-B*18:01 = test: as above; settings: source organism: Vibrio vulnificus CMCP6
HLA-A*02:01 [20] = test: as above; settings: source organism: Vibrio vulnificus CMCP6
HLA-B*07:02 [21] = test: as above; settings: source organism: Vibrio vulnificus CMCP6
HLA-A*66:01 = test: as above; settings: source organism: Vibrio vulnificus CMCP6
HLA-A*02:06 = test: IEDB peptide-MHC binding, purified MHC/direct/fluorescence; filed as Kd, often an IC50 or EC50 that approximates it; ≥ and ≤ were set here for values at or beyond the usual limits of such assays; settings: source organism: Vibrio vulnificus CMCP6
HLA-B*15:17 [22] = test: as above; settings: source organism: Vibrio vulnificus CMCP6
HLA-A*24:03 = test: as above; settings: source organism: Vibrio vulnificus CMCP6
HLA-B*51:01 = test: as above; settings: source organism: Vibrio vulnificus CMCP6
HLA-A*02:12 = test: as above; settings: source organism: Vibrio vulnificus CMCP6
HLA-B*57:01 [23] = test: as above; settings: source organism: Vibrio vulnificus CMCP6
[24] = source organism: Human immunodeficiency virus type 1 (MAL ISOLATE)
[25] = source organism: Escherichia coli
[26] = source organism: Vibrio vulnificus CMCP6

Work on GSEEIKSLY yielded a Kd (HLA-B*15:09) of no less than 20 µM, a Kd (HLA-B*15:17 [1]) of 0.0989 µM and a Kd (HLA-B*38:01) of no less than 20 µM. For the same sequence, the Kd (HLA-A*01:01 [2]; [24]) was 0.0503 µM, the Kd (HLA-A*30:01; [24]) was no less than 20 µM and the Kd (HLA-B*15:01 [3]) was 1.07 µM. The Kd (HLA-B*08:01 [4]; [24]) was no less than 20 µM.
In the case of SSMNSDAAY, the Kd (HLA-A*31:01) is reported as no less than 20 µM, the Kd (HLA-B*40:01; [25]) is reported as no less than 20 µM and the Kd (HLA-B*27:05 [5]) is reported as no less than 20 µM. For the same sequence, the Kd (HLA-B*35:01) was 0.0115 µM, the Kd (HLA-B*15:02) was 0.026 µM and the Kd (HLA-A*01:01 [6]) was 0.171 µM. For the same sequence, the Kd (HLA-A*11:01 [7]) was 0.144 µM, the Kd (HLA-A*26:01; [25]) was 0.0276 µM and the Kd (HLA-A*03:01; [25]) was no less than 20 µM. It also gave a Kd (HLA-A*02:01 [8]) of no less than 20 µM, a Kd (HLA-B*07:02 [9]) of no less than 20 µM and a Kd (HLA-B*15:01 [10]) of 0.15 µM. For the same sequence, the Kd (HLA-A*69:01) was no less than 20 µM and the Kd (HLA-B*08:01 [11]) was no less than 20 µM.
Work on YMIDPSGVSY yielded a Kd (HLA-B*58:01 [12]) of 0.589 µM, a Kd (HLA-A*29:02 [13]) of 0.0193 µM and a Kd (HLA-A*02:01 [14]) of 0.651 µM. For the same sequence, the Kd (HLA-A*02:07) was 12.7 µM and the Kd (HLA-B*57:01 [15]) was no less than 31.6 µM.
KQIVIINPM showed a Kd (HLA-B*53:01) of no less than 5 µM, a Kd (HLA-B*27:05 [16]) of 0.0389 µM and a Kd (HLA-B*44:02) of no less than 5 µM. It also gave a Kd (HLA-B*39:01) of no less than 5 µM, a Kd (HLA-B*58:01 [17]) of no less than 5 µM and a Kd (HLA-A*23:01) of no less than 5 µM. It also gave a Kd (HLA-B*14:02) of no less than 5 µM, a Kd (HLA-A*29:02 [18]) of no less than 5 µM and a Kd (HLA-A*01:01 [2]; [26]) of no less than 5 µM. It also gave a Kd (HLA-A*11:01 [19]) of no less than 5 µM, a Kd (HLA-A*30:01; [26]) of no less than 5 µM and a Kd (HLA-B*18:01) of no less than 5 µM. For the same sequence, the Kd (HLA-A*02:01 [20]) was no less than 5 µM, the Kd (HLA-B*07:02 [21]) was no less than 5 µM and the Kd (HLA-A*66:01) was no less than 5 µM. It also gave a Kd (HLA-B*08:01 [4]; [26]) of no less than 5 µM, a Kd (HLA-A*02:06) of 0.002 µM and a Kd (HLA-B*40:01; [26]) of 0.238 µM. It also gave a Kd (HLA-B*15:17 [22]) of no less than 20 µM, a Kd (HLA-A*24:03) of 0.135 µM and a Kd (HLA-B*51:01) of no less than 20 µM. It also gave a Kd (HLA-A*26:01; [26]) of no less than 20 µM, a Kd (HLA-A*02:12) of 0.064 µM and a Kd (HLA-A*03:01; [26]) of no less than 20 µM. The Kd (HLA-B*57:01 [23]) was no less than 20 µM.
